Reference: publication PMC6180346, “Two Faces of CwlM, an Essential PknB Substrate, in Mycobacterium tuberculosis” (Cell Reports, 2018)

T1: Recombinant 6xHis-tagged CwlM, non-phosphorylated (M. tuberculosis, UniProt L7N653 1-406)
T1 construct: also called non-phosphorylated recombinant CwlM; non-phosphorylated CwlM
T1 sequence: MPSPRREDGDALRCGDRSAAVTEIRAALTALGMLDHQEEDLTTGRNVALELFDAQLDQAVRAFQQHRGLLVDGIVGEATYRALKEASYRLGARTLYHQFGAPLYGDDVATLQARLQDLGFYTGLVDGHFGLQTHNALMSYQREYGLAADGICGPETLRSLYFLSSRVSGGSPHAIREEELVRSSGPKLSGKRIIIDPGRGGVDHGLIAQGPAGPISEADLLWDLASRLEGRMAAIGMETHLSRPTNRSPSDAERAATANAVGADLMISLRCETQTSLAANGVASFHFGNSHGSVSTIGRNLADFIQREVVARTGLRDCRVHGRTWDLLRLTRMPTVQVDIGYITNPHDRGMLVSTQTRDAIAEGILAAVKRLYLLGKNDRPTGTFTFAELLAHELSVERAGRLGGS


Columns and labels:
Test in all cases: co-IP; recombinant CwlM (PknB-phosphorylated or non-phosphorylated) and the other recombinant protein, 10 μg each, in 20 mM KH2PO4 pH 7.0, 100 mM NaCl, 10 mM KCl, with anti-CwlM-IgG-Sepharose; bound and unbound on SDS-PAGE, Coomassie; densitometry as percent of the total amount used
[1] = target: Recombinant 6xHis-tagged CwlM, non-phosphorylated (M. tuberculosis) (UniProt L7N653)
[2] = target: Recombinant 6xHis-tagged CwlM, PknB-phosphorylated (M. tuberculosis) (UniProt L7N653)
[3] = target: T1, Recombinant 6xHis-tagged CwlM, …; details: both partners purified

Row | Molecule | percent co-precipitated [1] | percent co-precipitated [2] | binding result [3]
1 | Recombinant 6XHis-tagged MurJ ICD (domain or fragment) | 85% | 12% | 
2 | Recombinant 6xHis-tagged 6xHis-MurJ_(E541-F680) (domain or fragment, The N-terminal end of the tag is read from the printed name 6xHis-MurJ_(E541-F680); also called MurJ linker; linker region (E541-F680)) EARAALDAVRARIRSRRLKTGPQTQNVLDQSSRPGPVTYPERRRLAPPRGKSVVHEPIRRRPPEQVARAGRAKGPEVIDRPSENASFGAASGAELPRPVADELQLDAPAGRDPGPVSRPHPSDLQNGDLPADAARGPIAF |  |  | binds
